From patent publication US12516294B2, “Method for producing mesenchymal stem cells from living body-derived cell sample containing mesenchymal stem cells” (AJINOMOTO CO., INC., priority 2019, dated 2026)
Entries after “also recorded” stand apart in the source; their conditions may differ.

Tests used:
Assay type in all cases: cell-based
MNC [1] = assay: MSC production by the kind of TGFβ receptor inhibitor (Example 4); details: 10 μM SB431542, 0.5 μM A-83-01 or 0.5 μM LDN-193189 in medium for seeding; Vitronectin (20-398 aa) coating; day 12 (FIG. 7)
Description: MNC (Lonza) was thawed using the following medium for seeding (1), (2) or (3). The above-mentioned cells were seeded at a concentration of 2.6×10^6 cells/well in a 24-well plate coated with Vitronectin (20-398 aa) (wako) at a concentration of 1.5 μg/cm^2, and cultured under the conditions of 37° C., 5% CO2. The next day of seeding, the entire amount of the medium in the plate was replaced with a medium for seeding (1), (2) or (3), and the medium for seeding (1), (2) or (3) in an amount corresponding to 20% of the amount of the medium in the plate was further added on day 3 and day 5 after seeding. Medium for seeding (1): StemFit (registered trade mark) AKO3N medium (Ajinomoto Co., Inc.) SOLUTION A, ¼ StemFit (registered trade mark) AKO3N medium (Ajinomoto Co., Inc.) SOLUTION B, 3 ng/mL bFGF (peprotech), 10 μM SB431542 (Stemgent), 1/100 Lipid Concentrate (Life Technologies), 10 nM Dexamethasone (Sigma-Aldrich), 10 ng/mL PDGF-BB (FUJIFILM Wako Pure Chemical Industries, Ltd.), 1 mM Lithium Chloride (Sigma-Aldrich)
Medium for seeding (2): StemFit (registered trade mark) AKO3N medium (Ajinomoto Co., Inc.) SOLUTION A, ¼ StemFit (registered trade mark) AKO3N medium (Ajinomoto Co., Inc.) SOLUTION B, 3 ng/mL bFGF (peprotech), 0.5 μM A-83-01 (wako), 1/100 Lipid Concentrate (Life Technologies), 10 nM Dexamethasone (Sigma-Aldrich), 10 ng/mL PDGF-BB (FUJIFILM Wako Pure Chemical Industries, Ltd.), 1 mM Lithium Chloride (Sigma-Aldrich)
Medium for seeding (3): StemFit (registered trade mark) AKO3N medium (Ajinomoto Co., Inc.) SOLUTION A, ¼ StemFit (registered trade mark) AKO3N medium (Ajinomoto Co., Inc.) SOLUTION B, 3 ng/mL bFGF (peprotech), 0.5 μM LDN-193189 (Stemgent), 1/100 Lipid Concentrate (Life Technologies), 10 nM Dexamethasone (Sigma-Aldrich), 10 ng/mL PDGF-BB (FUJIFILM Wako Pure Chemical Industries, Ltd.), 1 mM Lithium Chloride (Sigma-Aldrich) […]
After confirming that the cells became sub-confluent, the cells were passaged on day 12 after seeding, and the number of cells was measured.

MNC [2] = assay: MSC production from MNC by the kind of Vitronectin (Example 2); details: coating 1.5 μg/cm^2, 2.6×10^6 cells/well, 13 days after MNC seeding (FIG. 4)
Description: MNC (Lonza) was thawed using the following medium for seeding (serum-free). The above-mentioned cells were seeded at a concentration of 2.6×10^6 cells/well in 24-well plates coated with Vitronectin (20-398 aa) (wako) (corresponding to amino acid Nos. 1-379 of SEQ ID NO: 1), Vitronectin (VTN-N, 62-478 aa) (Life Technologies) (corresponding to amino acid Nos. 43-459 of SEQ ID NO: 1) or Vitronectin (Full length, 20-478 aa) (Sigma) (corresponding to SEQ ID NO: 1) at a concentration of 1.5 μg/cm^2, and cultured under the conditions of 37° C., 5% CO2. In addition, the cells were seeded at a concentration of 1.6×10^6 cells/well in a 24-well plate coated with Vitronectin (20-398 aa) (wako) or Synthemax II (CORNING) at concentrations of 1.5 μg/cm^2 and 5.0 μg/cm^2, respectively, and cultured under the conditions of 37° C., 5% CO2. Synthemax II is a vitronectin-based synthetic peptide containing RGD motif and flanking sequence. The next day of seeding, the entire amount of the medium in the plate was replaced with a medium for seeding, and the medium for seeding in an amount corresponding to 20% of the amount of the medium in the plate was further added on day 3 and day 5 after seeding. […]
After confirming that the cells became sub-confluent, the cells were passaged on days 12 and 13 after seeding, and the number of cells was measured.

[3] = tested on: bone marrow mononuclear cells (MNC); assay: Formation of MSC cell aggregates from MNC seeded on coated plates in serum-free medium (Example 1); details: plate coated at 1.5 μg/cm^2 at MNC seeding, day 5 after seeding, compared with Fibronectin coating
Description: (§1) Due to the limitations of purification techniques, bone marrow mononuclear cells (MNC) separated from bone marrow are slightly contained with mesenchymal stem cells (MSC). In this Example, a method for producing MSC from MNC by using a serum-free medium is verified. Bone marrow mononuclear cells (MNC) (Lonza) were thawed using the following medium for seeding. The above-mentioned cells were seeded at a concentration of 2.6×10^6 cells/well in a 24-well plate coated with Fibronectin (Sigma) or Vitronectin (wako) each at a concentration of 1.5 μg/cm^2, and cultured under the conditions of 37° C., 5% CO2. The next day of seeding, the entire amount of the medium in the plate was replaced with a medium for seeding, and the medium for seeding in an amount corresponding to 20% of the amount of the medium in the plate was further added on day 3 and day 5 after seeding. Medium for seeding: StemFit (registered trade mark) AKO3N medium (Ajinomoto Co., Inc.) SOLUTION A, StemFit (registered trade mark) AKO3N medium (Ajinomoto Co., Inc.) SOLUTION B, 3 ng/mL bFGF (peprotech), 10 μM 5B431542 (Stemgent), 1/100 Lipid Concentrate (Life Technologies), 10 nM Dexamethasone (Sigma-Aldrich), 10 ng/mL PDGF-BB (FUJIFILM Wako Pure Chemical Industries, Ltd.), 1 mM Lithium Chloride (Sigma-Aldrich)

[4] = tested on: bone marrow mononuclear cells (MNC); assay: Number of cells after re-seeding of dissociated aggregates (Example 1); details: coating at MNC seeding 1.5 μg/cm^2, aggregates re-seeded day 7, counted day 13, compared with Fibronectin coating
Description: as §1, with “Medium for seeding: StemFit (registered trade mark) AKO3N medium (Ajinomoto Co., Inc.) SOLUTION A, StemFit (registered trade mark) AKO3N medium (Ajinomoto Co., Inc.) SOLUTION B, 3 ng/mL bFGF (peprotech), 10 μM 5B431542 (Stemgent), 1/100 Lipid Concentrate (Life Technologies), 10 nM Dexamethasone (Sigma-Aldrich), 10 ng/mL PDGF-BB (FUJIFILM Wako Pure Chemical Industries, Ltd.), 1 mM Lithium Chloride (Sigma-Aldrich)” left out
After confirming that the cells became sub-confluent, the cells were passaged on day 13 after seeding, and the number of cells was measured.

Molecule: Cc1cccc(-c2nn(C(=S)Nc3ccccc3)cc2-c2ccnc3ccccc23)n1 [A-83-01]
- MSC production from MNC (number of MSC) (MNC [1]): MSC could be efficiently produced from MNC

Molecule: c1ccc2c(-c3cnn4cc(-c5ccc(N6CCNCC6)cc5)cnc34)ccnc2c1 [LDN-193189]
- MSC production from MNC (number of MSC) (MNC [1]): MSC could be efficiently produced from MNC

Molecule: NC(=O)c1ccc(-c2nc(-c3ccc4c(c3)OCO4)c(-c3ccccn3)[nH]2)cc1 [SB431542]
- MSC production from MNC (number of MSC) (MNC [1]): MSC could be efficiently produced from MNC

B1: Vitronectin (20-398 aa) (wako): commercially available partial peptide of vitronectin, corresponding to amino acid Nos. 1-379 of SEQ ID NO: 1 (protein, listed as Homo sapiens)
chain: DQESCKGRCTEGFNVDKKCQCDELCSYYQSCCTDYTAECKPQVTRGDVFTMPEDEYTVYDDGEEKNNATVHEQVGGPSLTSDLQAQSKGNPEQTPVLKPEEEAPAPEVGASKPEGIDSRPETLHPGRPQPPAEEELCSGKPFDAFTDLKNGSLFAFRGQYCYELDEKAVRPGYPKLIRDVWGIEGPIDAAFTRINCQGKTYLFKGSQYWRFEDGVLDPDYPRNISDGFDGIPDNVDAALALPAHSYSGRERVYFFKGKQYWEYQFQHQPSQEECEGSSLSAVFEHFAMMQRDSWEDIFELLFWGRTSAGTRQPQFISRDWHGVPGQVDAAMAGRIYISGMAPRPSLAKKQRFRHRNRKGYRSQRGHSRGRNQNSRRPSR
- MSC production from MNC (number of MSC) (MNC [2]): could produce MSC most efficiently from MNC

B2: Vitronectin: Vitronectin (wako) used to coat 24-well plates at 1.5 μg/cm^2 in Example 1 (protein, UniProt P04004 20-478, looked up)
Vitronectin: DQESCKGRCTEGFNVDKKCQCDELCSYYQSCCTDYTAECKPQVTRGDVFTMPEDEYTVYDDGEEKNNATVHEQVGGPSLTSDLQAQSKGNPEQTPVLKPEEEAPAPEVGASKPEGIDSRPETLHPGRPQPPAEEELCSGKPFDAFTDLKNGSLFAFRGQYCYELDEKAVRPGYPKLIRDVWGIEGPIDAAFTRINCQGKTYLFKGSQYWRFEDGVLDPDYPRNISDGFDGIPDNVDAALALPAHSYSGRERVYFFKGKQYWEYQFQHQPSQEECEGSSLSAVFEHFAMMQRDSWEDIFELLFWGRTSAGTRQPQFISRDWHGVPGQVDAAMAGRIYISGMAPRPSLAKKQRFRHRNRKGYRSQRGHSRGRNQNSRRPSRATWLSLFSSEESNLGANNYDDYRMDWLVPATCEPIQSVFFFSGDKYYRVNLRTRRVDTVDPPYPRSIAQYWLGCPAPGHL
- number of cell aggregates obtained [3]: More cell aggregates were formed; also recorded: larger
- number of cells obtained by the subsequent re-seeding [4]: larger
- number of cells obtained by the subsequent re-seeding ([4]; listed as vitronectin): remarkably higher
